Experiments:
[1] = biological target: CD33 expressed on cells (MOLM-13, MV411, HL60) (human, UniProt P20138 18-364); test: cell binding
[2] = biological target: T1, TCRvβ 6-5 expressed on cells (TCRvβ 6-5+ Jurkat cells; human T cells) (human); test: FACS cell binding
T1 chain: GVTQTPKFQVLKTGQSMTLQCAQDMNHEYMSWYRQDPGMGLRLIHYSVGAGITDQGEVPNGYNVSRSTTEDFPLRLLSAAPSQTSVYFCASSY

[3] = biological target: T1, TCRvβ 6-5 expressed on cells (TCRvβ …); test: cell binding

Chain of CD33 expressed on cells (MOLM-13, MV411, HL60) (P20138 18-364): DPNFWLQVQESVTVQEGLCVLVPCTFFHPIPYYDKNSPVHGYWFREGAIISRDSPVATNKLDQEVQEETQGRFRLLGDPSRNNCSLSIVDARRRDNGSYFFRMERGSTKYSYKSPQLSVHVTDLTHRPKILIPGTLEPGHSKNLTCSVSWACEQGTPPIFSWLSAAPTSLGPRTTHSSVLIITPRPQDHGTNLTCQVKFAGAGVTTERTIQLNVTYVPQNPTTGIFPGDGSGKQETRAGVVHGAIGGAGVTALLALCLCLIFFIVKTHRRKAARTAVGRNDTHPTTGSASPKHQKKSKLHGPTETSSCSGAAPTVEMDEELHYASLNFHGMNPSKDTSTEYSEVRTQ

B1: BJM0387 (bispecific antibody)
heavy: QVQLVQSGAEVKKPGSSVKVSCKASGYSFTTYYIHWVRQAPGQGLEWMGWFFPGSGNIKYNEKFKGRVTITADTSTSTAYMELSSLRSEDTAVYYCAGSYYSYDVLDYWGQGTTVTVSSGGGGSGGGGSGGGGSGGGGSDIQMTQSPSFLSASVGDRVTITCKASQNVGINVVWHQQKPGKAPKALIYSSSHRYSGVPSRFSGSGSGTEFTLTISSLQPEDFATYFCQQFKSYPLTFGQGTKLEIKGGGGSQVQLVQSGAEVKKPGSSVKVSCKASGYTFTDYNMHWVRQAPGQGLEWIGYIYPYNGGTGYNQKFKSKATITADESTNTAYMELSSLRSEDTAVYYCARGRPAMDYWGQGTLVTVSS
light: DIQMTQSPSSLSASVGDRVTITCRASESVDNYGISFMNWFQQKPGKAPKLLIYAASNQGSGVPSRFSGSGSGTDFTLTISSLQPDDFATYYCQQSKEVPWTFGQGTKVEIK
- EC50 [1]: 0.13 nM
- EC50 [2]: 0.908 nM
- EC50 [3]: 0.91 nM

— patent US20230102344A1 (published 2023)
